Measurements taken from article PMC4109796.

Target: STAT3 (UniProt P40763)
Assay: co-immunoprecipitation, immunoblot
Settings: reference: wild-type EZH2; sites S21

With EZH2 (from UniProt Q15910) EZH2 S21A the “binding against the reference” value was “lost”.
